These binders were tested against HLA-A*0201 (human, UniProt A*02:01) (assay: REVEAL MHC binding assay (ProImmune)).

Row | Binder | % Pass/fail control
1 | FMQPLFLVA [Peptide ID 62 FMQPLFLVA (HA-1)] | 215 % of pass/fail control
2 | GMVFSLLQV [Peptide ID 99 GMVFSLLQV (CD127)] | 175 % of pass/fail control
3 | RLFEQVMRI [Peptide ID 43 RLFEQVMRI (MPO)] | 192 % of pass/fail control
4 | KLKDLFTEL [Peptide ID 98 KLKDLFTEL (CD11a)] | 171 % of pass/fail control
5 | IMSDSNYVV [Peptide ID 65 IMSDSNYVV (FLT3)] | 220 % of pass/fail control
6 | FLYIGIITI [Peptide ID 4 FLYIGIITI (CD53)] | 136 % of pass/fail control
7 | FLQDTFPQQ [Peptide ID 70 FLQDTFPQQ (CD127)] | 49.8 % of pass/fail control
8 | LIQPFMFRL [Peptide ID 84 LIQPFMFRL (MPO)] | 311 % of pass/fail control
9 | VLQELNVTV [Peptide ID 34 VLQELNVTV (PR3)] | 170 % of pass/fail control
10 | VLWPRACWT [Peptide ID 100 VLWPRACWT (CD50)] | 139 % of pass/fail control
11 | AIWLFIFNV [Peptide ID 80 AIWLFIFNV (CD19)] | 199 % of pass/fail control
12 | LLLSGAARA [Peptide ID 51 LLLSGAARA (PR3)] | 178 % of pass/fail control
13 | KLLLALAGV [Peptide ID 67 KLLLALAGV (MPO)] | 216 % of pass/fail control
14 | HLYGSNASL [Peptide ID 38 HLYGSNASL (CD11a)] | 135 % of pass/fail control
15 | LLLTNTFGA [Peptide ID 92 LLLTNTFGA (CD11a)] | 196 % of pass/fail control
16 | YLIFCLCSL [Peptide ID 50 YLIFCLCSL (CD19)] | 71.2 % of pass/fail control
17 | SMEEAKQLV [Peptide ID 71 SMEEAKQLV (MPO)] | 169 % of pass/fail control
18 | FLLLTISLL [Peptide ID 88 FLLLTISLL (CD52)] | 302 % of pass/fail control
19 | FLLGLGLGV [Peptide ID 8 FLLGLGLGV (CD7)] | 202 % of pass/fail control
20 | KMAEAYSEI [Peptide ID 46 KMAEAYSEI (TCR_TV)] | 200 % of pass/fail control
21 | YISRDTCIV [Peptide ID 69 YISRDTCIV (HA-2)] | 133 % of pass/fail control
22 | TLPQLFLKV [Peptide ID 72 TLPQLFLKV (FLT3)] | 182 % of pass/fail control
23 | LLAEVTLAI [Peptide ID 47 LLAEVTLAI (CD53)] | 199 % of pass/fail control

Row | Binder | % Pass/fail control
24 | GLADVAVGA [Peptide ID 64 GLADVAVGA (CD11a)] | 206 % of pass/fail control
25 | LLWAGALAM [Peptide ID 86 LLWAGALAM (CD33)] | 321 % of pass/fail control
26 | LMIPAGIYA [Peptide ID 40 LMIPAGIYA (CD20)] | 142 % of pass/fail control
27 | EMDEELHYA [Peptide ID 54 EMDEELHYA (CD33)] | 117 % of pass/fail control
28 | HLLGPWLLL [Peptide ID 94 HLLGPWLLL (CD22)] | 212 % of pass/fail control
29 | GLLSPQAQV [Peptide ID 33 GLLSPQAQV (FLT3)] | 170 % of pass/fail control
30 | ILTALFLRV [Peptide ID 61 ILTALFLRV (TCR_TV)] | 159 % of pass/fail control
31 | FLDCQIHRV [Peptide ID 7 FLDCQIHRV (CD127)] | 224 % of pass/fail control
32 | TLWQLVEYL [Peptide ID 97 TLWQLVEYL (ZAP-70)] | 198 % of pass/fail control
33 | GMDRYLIYV [Peptide ID 9 GMDRYLIYV (CD18)] | 170 % of pass/fail control
34 | LLEGNLVTL [Peptide ID 76 LLEGNLVTL (CD64)] | 173 % of pass/fail control
35 | DMKDSIWWV [Peptide ID 37 DMKDSIWWV (PU.1)] | 131 % of pass/fail control
36 | KMIMNSLSL [Peptide ID 96 KMIMNSLSL (CD20)] | 213 % of pass/fail control
37 | ALASVLLAL [Peptide ID 73 ALASVLLAL (PR3)] | 139 % of pass/fail control
38 | RMPWYHSSL [Peptide ID 95 RMPWYHSSL (ZAP-70)] | 85.6 % of pass/fail control
39 | SLFEGIYTI [Peptide ID 6 SLFEGIYTI (FLT3)] | 183 % of pass/fail control
40 | YLAVGIMFL [Peptide ID 5 YLAVGIMFL (CD64)] | 155 % of pass/fail control
41 | SICEGTVEV [Peptide ID 59 SICEGTVEV (CD5)] | 130 % of pass/fail control
42 | LMGTLIAKV [Peptide ID 83 LMGTLIAKV (HA-1)] | 316 % of pass/fail control
43 | VLLRWEEEL [Peptide ID 89 VLLRWEEEL (CD50)] | 184 % of pass/fail control
44 | LLLTISLLV [Peptide ID 81 LLLTISLLV (CD52)] | 250 % of pass/fail control
45 | ILYPINILI [Peptide ID 48 ILYPINILI (CD11a)] | 214 % of pass/fail control
46 | RLYQFLLDL [Peptide ID 66 RLYQFLLDL (PU.1)] | 234 % of pass/fail control

Row | Binder | % Pass/fail control
47 | LLLLLIFIV [Peptide ID 58 LLLLLIFIV (CD11a)] | 6.4 % of pass/fail control
48 | ELLDVSWLI [Peptide ID 74 ELLDVSWLI (TdT)] | 220 % of pass/fail control
49 | FIYGVILTA [Peptide ID 60 FIYGVILTA (TCR_TV)] | 149 % of pass/fail control
50 | ALARGLPGA [Peptide ID 53 ALARGLPGA (CD7)] | 215 % of pass/fail control
51 | GLMATPAKL [Peptide ID 77 GLMATPAKL (MPO)] | 218 % of pass/fail control
52 | VLTPAQLNV [Peptide ID 44 VLTPAQLNV (MPO)] | 175 % of pass/fail control
53 | VLFHNLPSL [Peptide ID 49 VLFHNLPSL (CD53)] | 216 % of pass/fail control
54 | KLMSPKLYV [Peptide ID 55 KLMSPKLYV (CD19)] | 232 % of pass/fail control
55 | GMGWAAFNL [Peptide ID 45 GMGWAAFNL (CD50)] | 193 % of pass/fail control
56 | LLRTGGWKV [Peptide ID 39 LLRTGGWKV (CD19)] | 124 % of pass/fail control
57 | GLYQGLSTA [Peptide ID 41 GLYQGLSTA (TCR_TV)] | 107 % of pass/fail control
58 | LLIILLAEV [Peptide ID 68 LLIILLAEV (CD53)] | 99.2 % of pass/fail control
59 | YLALGDQML [Peptide ID 91 YLALGDQML (CD50)] | 197 % of pass/fail control
60 | VLLVVLLVV [Peptide ID 90 VLLVVLLVV (CD5)] | 71.5 % of pass/fail control
61 | YLRPGQAAA [Peptide ID 52 YLRPGQAAA (CD18)] | 125 % of pass/fail control
62 | WLQAQKVQV [Peptide ID 63 WLQAQKVQV (TdT)] | 190 % of pass/fail control
63 | VLIGILLLV [Peptide ID 35 VLIGILLLV (CD18)] | 117 % of pass/fail control
64 | LVAPRFLEV [Peptide ID 85 LVAPRFLEV (CD50)] | 340 % of pass/fail control
65 | NLEEDAYWV [Peptide ID 57 NLEEDAYWV (CD11a)] | 64.9 % of pass/fail control
66 | YLGYTVTWL [Peptide ID 93 YLGYTVTWL (CD11a)] | 239 % of pass/fail control
67 | SMSEEVTYA [Peptide ID 56 SMSEEVTYA (CLL-1)] | 158 % of pass/fail control
68 | LLLQVSSRV [Peptide ID 36 LLLQVSSRV (CD64)] | 180 % of pass/fail control
69 | LLIHNNFGV [Peptide ID 42 LLIHNNFGV (CD53)] | 191 % of pass/fail control

From US20110142842A1 (MEDINNOVA, published 2011)
